Data as given in the supplement of paper PMC11316812.
± gives the standard deviation of the averaged measurements.

Tests used:
MCF7 = experiment: percentage of EdU-negative (G0-arrested) nuclei per well, 72 h; higher = more G0 arrest; conditions: reference: sequence is the full UniProt precursor, the tested protein was the secreted form or ectodomain
hTERT-HMEC = experiment: as above; conditions: reference: sequence is the full UniProt precursor, the tested protein was the secreted form or ectodomain
[1] = protein concentration 0.0225 µM
[2] = protein concentration 0.0267275 µM
[3] = protein concentration 0.267275 µM
[4] = protein concentration 0.00625 µM
[5] = protein concentration 0.0625 µM
[6] = protein concentration 0.0055 µM
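Further: secreted proteins added to cultured cells, EdU pulse at the end, nuclei found by Hoechst imaging, EdU status from nuclear versus surrounding ring intensity ratio, PBS as neutral control.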

Row | Sequence | percentage of EdU-negative (MCF7; [1]) [%] | percentage of EdU-negative (MCF7; protein concentration 0.225 µM) [%] | percentage of EdU-negative (hTERT-HMEC; [1]) [%] | percentage of EdU-negative (hTERT-HMEC; protein concentration 0.225 µM) [%] | also measured
1 | MRLPLLLVFASVIPGAVLLLDTRQFLIYNEDHKRCVDAVSPSAVQTAACNQDAESQKFRWVSESQIMSVAFKLCLGVPSKTDWVAITLYACDSKSEFQKWECKNDTLLGIKGEDLFFNYGNRQEKNIMLYKGSGLWSRWKIYGTTDNLCSRGYEAMYTLLGNANGATCAFPFKFENKWYADCTSAGRSDGWLWCGTTTDYDTDKLFGYCPLKFEGSESLWNKDPLTSVSYQINSKSALTWHQARKSCQQQNAELLSITEIHEQTYLTGLTSSLTSGLWIGLNSLSFNSGWQWSDRSPFRYLNWLPGSPSAEPGKSCVSLNPGKNAKWENLECVQKLGYICKKGNTTLNSFVIPSESDVPTHCPSQWWPYAGHCYKIHRDEKKIQRDALTTCRKEGGDLTSIHTIEELDFIISQLGYEPNDELWIGLNDIKIQMYFEWSDGTPVTFTKWLRGEPSHENNRQEDCVVMKGKDGYWADRGCEWPLGYICKMKSRSQGPEIVEVEKGCRKGWKKHHFYCYMIGHTLSTFAEANQTCNNENAYLTTIEDRYEQAFLTSFVGLRPEKYFWTGLSDIQTKGTFQWTIEEEVRFTHWNSDMPGRKPGCVAMRTGIAGGLWDVLKCDEKAKFVCKHWAEGVTHPPKPTTTPEPKCPEDWGASSRTSLCFKLYAKGKHEKKTWFESRDFCRALGGDLASINNKEEQQTIWRLITASGSYHKLFWLGLTYGSPSEGFTWSDGSPVSYENWAYGEPNNYQNVEYCGELKGDPTMSWNDINCEHLNNWICQIQKGQTPKPEPTPAPQDNPPVTEDGWVIYKDYQYYFSKEKETMDNARAFCKRNFGDLVSIQSESEKKFLWKYVNRNDAQSAYFIGLLISLDKKFAWMDGSKVDYVSWATGEPNFANEDENCVTMYSNSGFWNDINCGYPNAFICQRHNSSINATTVMPTMPSVPSGCKEGWNFYSNKCFKIFGFMEEERKNWQEARKACIGFGGNLVSIQNEKEQAFLTYHMKDSTFSAWTGLNDVNSEHTFLWTDGRGVHYTNWGKGYPGGRRSSLSYEDADCVVIIGGASNEAGKWMDDTCDSKRGYICQTRSDPSLTNPPATIQTDGFVKYGKSSYSLMRQKFQWHEAETYCKLHNSLIASILDPYSNAFAWLQMETSNERVWIALNSNLTDNQYTWTDKWRVRYTNWAADEPKLKSACVYLDLDGYWKTAHCNESFYFLCKRSDEIPATEPPQLPGRCPESDHTAWIPFHGHCYYIESSYTRNWGQASLECLRMGSSLVSIESAAESSFLSYRVEPLKSKTNFWIGLFRNVEGTWLWINNSPVSFVNWNTGDPSGERNDCVALHASSGFWSNIHCSSYKGYICKRPKIIDAKPTHELLTTKADTRKMDPSKPSSNVAGVVIIVILLILTGAGLAAYFFYKKRRVHLPQEGAFENTLYFNSQSSPGTSDMKDLVGNIEQNEHSVI | – | – | – | – | percentage of EdU-negative (MCF7; protein concentration 0.007 µM): 24.1 ± 0.79%; percentage of EdU-negative (MCF7; protein concentration 0.07 µM): 24 ± 0.4%; percentage of EdU-negative (hTERT-HMEC; protein concentration 0.007 µM): 4.48 ± 0.71%; percentage of EdU-negative (hTERT-HMEC; protein concentration 0.07 µM): 5.07 ± 0.13%
2 | MRLPRRAALGLLPLLLLLPPAPEAAKKPTPCHRCRGLVDKFNQGMVDTAKKNFGGGNTAWEEKTLSKYESSEIRLLEILEGLCESSDFECNQMLEAQEEHLEAWWLQLKSEYPDLFEWFCVKTLKVCCSPGTYGPDCLACQGGSQRPCSGNGHCSGDGSRQGDGSCRCHMGYQGPLCTDCMDGYFSSLRNETHSICTACDESCKTCSGLTNRDCGECEVGWVLDEGACVDVDECAAEPPPCSAAQFCKNANGSYTCEECDSSCVGCTGEGPGNCKECISGYAREHGQCADVDECSLAEKTCVRKNENCYNTPGSYVCVCPDGFEETEDACVPPAEAEATEGESPTQLPSREDL [Q6UXH1] | 23.9 ± 1.1 | 26 ± 1.1 | 4.4 ± 0.85 | 6.12 ± 0.13 | –
3 | MRLPWELLVLQSFILCLADDSTLHGPIFIQEPSPVMFPLDSEEKKVKLNCEVKGNPKPHIRWKLNGTDVDTGMDFRYSVVEGSLLINNPNKTQDAGTYQCTATNSFGTIVSREAKLQFAYLDNFKTRTRSTVSVRRGQGMVLLCGPPPHSGELSYAWIFNEYPSYQDNRRFVSQETGNLYIAKVEKSDVGNYTCVVTNTVTNHKVLGPPTPLILRNDGVMGEYEPKIEVQFPETVPTAKGATVKLECFALGNPVPTIIWRRADGKPIARKARRHKSNGILEIPNFQQEDAGLYECVAENSRGKNVARGQLTFYAQPNWIQKINDIHVAMEENVFWECKANGRPKPTYKWLKNGEPLLTRDRIQIEQGTLNITIVNLSDAGMYQCLAENKHGVIFSNAELSVIAVGPDFSRTLLKRVTLVKVGGEVVIECKPKASPKPVYTWKKGRDILKENERITISEDGNLRIINVTKSDAGSYTCIATNHFGTASSTGNLVVKDPTRVMVPPSSMDVTVGESIVLPCQVTHDHSLDIVFTWSFNGHLIDFDRDGDHFERVGGQDSAGDLMIRNIQLKHAGKYVCMVQTSVDRLSAAADLIVRGPPGPPEAVTIDEITDTTAQLSWRPGPDNHSPITMYVIQARTPFSVGWQAVSTVPELIDGKTFTATVVGLNPWVEYEFRTVAANVIGIGEPSRPSEKRRTEEALPEVTPANVSGGGGSKSELVITWETVPEELQNGRGFGYVVAFRPYGKMIWMLTVLASADASRYVFRNESVHPFSPFEVKVGVFNNKGEGPFSPTTVVYSAEEEPTKPPASIFARSLSATDIEVFWASPLEKNRGRIQGYEVKYWRHEDKEENARKIRTVGNQTSTKITNLKGSVLYHLAVKAYNSAGTGPSSATVNVTTRKPPPSQPPGNIIWNSSDSKIILNWDQVKALDNESEVKGYKVLYRWNRQSSTSVIETNKTSVELSLPFDEDYIIEIKPFSDGGDGSSSEQIRIPKISNAYARGSGASTSNACTLSAISTIMISLTARSSL [Q8IWV2] | – | – | – | – | percentage of EdU-negative (MCF7; protein concentration 0.018 µM): 25.6 ± 0.8%; percentage of EdU-negative (MCF7; protein concentration 0.18 µM): 27 ± 1.7%; percentage of EdU-negative (hTERT-HMEC; protein concentration 0.018 µM): 5.06 ± 0.29%; percentage of EdU-negative (hTERT-HMEC; protein concentration 0.18 µM): 8.55 ± 0.98%
4 | MRLRRLALFPGVALLLAAARLAAASDVLELTDDNFESRISDTGSAGLMLVEFFAPWCGHCKRLAPEYEAAATRLKGIVPLAKVDCTANTNTCNKYGVSGYPTLKIFRDGEEAGAYDGPRTADGIVSHLKKQAGPASVPLRTEEEFKKFISDKDASIVGFFDDSFSEAHSEFLKAASNLRDNYRFAHTNVESLVNEYDDNGEGIILFRPSHLTNKFEDKTVAYTEQKMTSGKIKKFIQENIFGICPHMTEDNKDLIQGKDLLIAYYDVDYEKNAKGSNYWRNRVMMVAKKFLDAGHKLNFAVASRKTFSHELSDFGLESTAGEIPVVAIRTAKGEKFVMQEEFSRDGKALERFLQDYFDGNLKRYLKSEPIPESNDGPVKVVVAENFDEIVNNENKDVLIEFYAPWCGHCKNLEPKYKELGEKLSKDPNIVIAKMDATANDVPSPYEVRGFPTIYFSPANKKLNPKKYEGGRELSDFISYLQREATNPPVIQEEKPKKKKKAQEDL | – | – | – | – | percentage of EdU-negative (MCF7; [2]): 23.5 ± 0.4%; percentage of EdU-negative (MCF7; [3]): 26.1 ± 0.34%; percentage of EdU-negative (hTERT-HMEC; [2]): 5.82 ± 1%; percentage of EdU-negative (hTERT-HMEC; [3]): 5.84 ± 0.16%
5 | MRLSPAPLKLSRTPALLALALPLAAALAFSDETLDKVPKSEGYCSRILRAQGTRREGYTEFSLRVEGDPDFYKPGTSYRVTLSAAPPSYFRGFTLIALRENREGDKEEDHAGTFQIIDEEETQFMSNCPVAVTESTPRRRTRIQVFWIAPPAGTGCVILKASIVQKRIIYFQDEGSLTKKLCEQDSTFDGVTDKPILDCCACGTAKYRLTFYGNWSEKTHPKDYPRRANHWSAIIGGSHSKNYVLWEYGGYASEGVKQVAELGSPVKMEEEIRQQSDEVLTVIKAKAQWPAWQPLNVRAAPSAEFSVDRTRHLMSFLTMMGPSPDWNVGLSAEDLCTKECGWVQKVVQDLIPWDAGTDSGVTYESPNKPTIPQEKIRPLTSLDHPQSPFYDPEGGSITQVARVVIERIARKGEQCNIVPDNVDDIVADLAPEEKDEDDTPETCIYSNWSPWSACSSSTCDKGKRMRQRMLKAQLDLSVPCPDTQDFQPCMGPGCSDEDGSTCTMSEWITWSPCSISCGMGMRSRERYVKQFPEDGSVCTLPTEETEKCTVNEECSPSSCLMTEWGEWDECSATCGMGMKKRHRMIKMNPADGSMCKAETSQAEKCMMPECHTIPCLLSPWSEWSDCSVTCGKGMRTRQRMLKSLAELGDCNEDLEQVEKCMLPECPIDCELTEWSQWSECNKSCGKGHVIRTRMIQMEPQFGGAPCPETVQRKKCRIRKCLRNPSIQKLRWREARESRRSEQLKEESEGEQFPGCRMRPWTAWSECTKLCGGGIQERYMTVKKRFKSSQFTSCKDKKEIRACNVHPC [Q9HCB6] | – | – | – | – | percentage of EdU-negative (MCF7; [4]): 24.6 ± 2.6%; percentage of EdU-negative (MCF7; [5]): 24.8 ± 1.8%; percentage of EdU-negative (hTERT-HMEC; [4]): 4.65 ± 0.17%; percentage of EdU-negative (hTERT-HMEC; [5]): 6.96 ± 0.65%
6 | MRLSVRRVLLAAGCALVLVLAVQLGQQVLECRAVLAGLRSPRGAMRPEQEELVMVGTNHVEYRYGKAMPLIFVGGVPRSGTTLMRAMLDAHPEVRCGEETRIIPRVLAMRQAWSKSGREKLRLDEAGVTDEVLDAAMQAFILEVIAKHGEPARVLCNKDPFTLKSSVYLSRLFPNSKFLLMVRDGRASVHSMITRKVTIAGFDLSSYRDCLTKWNKAIEVMYAQCMEVGKEKCLPVYYEQLVLHPRRSLKLILDFLGIAWSDAVLHHEDLIGKPGGVSLSKIERSTDQVIKPVNLEALSKWTGHIPGDVVRDMAQIAPMLAQLGYDPYANPPNYGNPDPFVINNTQRVLKGDYKTPANLKGYFQVNQNSTSSHLGSS | 26.7 ± 0.75 | 30.1 ± 1.8 | 5.18 ± 0.23 | 36.4 ± 2.8 | –
7 | MRLSWFRVLTVLSICLSAVATATGAEGKRKLQIGVKKRVDHCPIKSRKGDVLHMHYTGKLEDGTEFDSSLPQNQPFVFSLGTGQVIKGWDQGLLGMCEGEKRKLVIPSELGYGERGAPPKIPGGATLVFEVELLKIERRTEL | 25.5 ± 0.037 | 29.219 ± 0.017 | 4.9 ± 1.4 | 6.25 ± 0.1 | –
8 | MRLTVLCAVCLLPGSLALPLPQEAGGMSELQWEQAQDYLKRFYLYDSETKNANSLEAKLKEMQKFFGLPITGMLNSRVIEIMQKPRCGVPDVAEYSLFPNSPKWTSKVVTYRIVSYTRDLPHITVDRLVSKALNMWGKEIPLHFRKVVWGTADIMIGFARGAHGDSYPFDGPGNTLAHAFAPGTGLGGDAHFDEDERWTDGSSLGINFLYAATHELGHSLGMGHSSDPNAVMYPTYGNGDPQNFKLSQDDIKGIQKLYGKRSNSRKK | – | – | – | – | percentage of EdU-negative (MCF7; [6]): 26.4 ± 1.6%; percentage of EdU-negative (MCF7; protein concentration 0.055 µM): 29.9 ± 0.45%; percentage of EdU-negative (hTERT-HMEC; [6]): 5.71 ± 0.72%; percentage of EdU-negative (hTERT-HMEC; protein concentration 0.055 µM): 15 ± 1.8%
9 | MRMLLALLALSAARPSASAESHWCYEVQAESSNYPCLVPVKWGGNCQKDRQSPINIVTTKAKVDKKLGRFFFSGYDKKQTWTVQNNGHSVMMLLENKASISGGGLPAPYQAKQLHLHWSDLPYKGSEHSLDGEHFAMEMHIVHEKEKGTSRNVKEAQDPEDEIAVLAFLVEAGTQVNEGFQPLVEALSNIPKPEMSTTMAESSLLDLLPKEEKLRHYFRYLGSLTTPTCDEKVVWTVFREPIQLHREQILAFSQKLYYDKEQTVSMKDNVRPLQQLGQRTVIKSGAPGRPLPWALPALLGPMLACLLAGFLR | 24.9 ± 1.8 | 25.5 ± 1.3 | 5.11 ± 0.088 | 7.91 ± 0.34 | –
10 | MRNSYRFLASSLSVVVSLLLIPEDVCEKIIGGNEVTPHSRPYMVLLSLDRKTICAGALIAKDWVLTAAHCNLNKRSQVILGAHSITREEPTKQIMLVKKEFPYPCYDPATREGDLKLLQLMEKAKINKYVTILHLPKKGDDVKPGTMCQVAGWGRTHNSASWSDTLREVNITIIDRKVCNDRNHYNFNPVIGMNMVCAGSLRGGRDSCNGDSGSPLLCEGVFRGVTSFGLENKCGDPRGPGVYILLSKKHLNWIIMTIKGAV | 27.7 ± 2.1 | 30.8 ± 3.2 | 5.3 ± 0.55 | 5.96 ± 1.8 | –
